Source: the supplement of paper PMC10567573

B1: HDAC6 (parent)
chain: QYMNEGELRVLADTYDSVYLHPNS

Variants of: B1
Experiment: protein stability index of a GFP-peptide fusion (GPS, HEK-293T) (PSI 1-6); higher = more stable
Details: c terminus: a fixed tail appended
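Further: lentivirally expressed fusions sorted by FACS into six bins by GFP to DsRed ratio, PSI derived from sequencing read proportions per bin multiplied by bin number.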

Protein stability index, by site and new letter:
V10: I 1.84, R 1.92, P 3.53, K 2.01, S 2.81, A 1.79, T 2.18, E 2.46, Y 2.95, F 2.69, Q 3.27, M 2.08, W 2.22, C 2.51, H 2.31, D 3.61, L 1.66, N 2.15, G 3.15
R9: T 2.14, D 2, L 1.6, G 2.18, F 3.31, N 2.67, A 1.76, I 2.13, K 1.69, M 1.46, P 3.26, W 1.23, E 2.7, H 3.19, V 4.11, Q 2.65, Y 1.87, S 2.05, C 1.48
L8: Y 2.96, W 1.33
S17: F 2.53, V 2.09, W 2.57, D 2.56, K 1.78, N 2.08, C 2.46, T 2.37, Y 1.47, P 3.32, Q 2.5, E 2.99, M 1.95, L 2.02, I 2.32, H 2.07, R 2.18, G 2.05
D13: S 1.9, H 1.77, W 1.37, V 1.97, K 1.16, G 2.86, T 2.08, E 1.6, Q 1.57, P 1.94, I 2.2, C 1.2, R 1.27, F 3.63, N 2.23, L 1.45
A12: H 2.31, L 2.58, E 2.36, W 1.02, G 1.68, I 2.73, Y 2.1, K 1.98, T 2.54, Q 2.04, S 2.58, M 3.21, D 1.57, R 2.31, F 2.89, N 1.92, V 1.09, P 3.17
D16: P 2.56, T 1.8, S 3.08, W 4.07, V 2.42, E 2.42, C 4.03, F 3.19
V18: K 2.63, L 1.95, H 2.68, G 2.6, D 2.87, M 2.25, F 2.23, P 1.92, E 3.18, I 1.51, N 2.98, A 2.56, C 2.17
L11: H 3.13, D 3.01, A 1.83, V 2.25, K 3.03, F 2.01, T 2, G 2.46, M 2.98, E 2.36, S 1.76, N 2.32, W 2.64, R 2.61, I 1.78, Y 2.14, P 3.49, C 1.95, Q 2.32
T14: H 2.73, P 2.53, D 2.84, V 1.5, Q 3.12, E 2.2, S 2.04, K 1.76, A 2.1, Y 2.92, F 1.73, N 2.36, C 2.54, R 2.51, L 1.28, W 1.43
Y15: D 3.86, W 2.25, G 2.6, S 3.18, K 3.46, C 2.46, H 3.13, M 2.79, L 2.69, I 1.81, E 3.18, A 2.75, R 3.05, V 2.38, P 1.9, N 2.65, T 2.82, Q 2.95, F 1.83
